Test results from publication PMC4118376 (Sensors (Basel, Switzerland), 2014).

Molecular target: staphylococcal enterotoxin B (Staphylococcus aureus (strain not …, UniProt P01552))
Assay: SPR
Conditions: both partners purified

Sequence of staphylococcal enterotoxin B (Staphylococcus aureus (P01552 28-266): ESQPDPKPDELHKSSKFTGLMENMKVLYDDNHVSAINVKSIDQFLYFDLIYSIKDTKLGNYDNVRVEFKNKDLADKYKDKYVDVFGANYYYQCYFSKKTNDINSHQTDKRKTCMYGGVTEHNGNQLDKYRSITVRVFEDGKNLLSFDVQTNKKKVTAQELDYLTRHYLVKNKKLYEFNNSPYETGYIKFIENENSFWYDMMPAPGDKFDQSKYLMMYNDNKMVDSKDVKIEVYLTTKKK

B1: sdAb B12 (VHH)
VHH: EVQLQASGGGLVQAGGPLRLTCAVSGPTFGSYALGWFRQAPGKEREFVAAVSWSGGDTYADSVKGRFIISRDNAKNTVYLQMNNLEPEDTAVYSCARMQDRYYISKDAKDYGYWGQGTQVTVSS
notes: source: E. coli Rosetta (DE3), periplasm, purified (IMAC, size exclusion chromatography)
Kd: 0.232 nM
koff: 0.000321 s⁻¹
kon: 1.39e+06 M⁻¹ s⁻¹

B2: sdAb D9 (VHH)
VHH: EVQLQASGGGLAQAGDSLRLSCAASIRTFGSYAMGWFRQAPGKEREFVAAISWSGGDTYADSAKGRFTISRDNAKNMMYLQMNSLAPEDTAVYFCAIVEAKYYISKDARDYGYWGQGTQVFVSS
notes: as for B1
Kd: 0.111 nM
koff: 0.000277 s⁻¹
kon: 2.49e+06 M⁻¹ s⁻¹

B3: sdAb B1 (VHH)
VHH: EVQLQASGGGLVQAGGSLRLTCAVSGPTFGSYALGWFRQAPGKEREFVAAVSWSGGDTYADTAKGRFIISRDNAKNTVYLQMNNLEPEDTAVYSCARMQDRYYISKDAKDYGYWGQGTQVIVSS
notes: as for B1
Kd: 0.2 nM
koff: 0.00039 s⁻¹
kon: 1.95e+06 M⁻¹ s⁻¹

B4: sdAb H9 (VHH)
VHH: EVQLQASGGGLVQAGGSLRLTCAVSGPTFGSYALGWFRQAPGKEREFVAAVSWSGGDTYADSVKGRFIISRDNAKNTVYLQMNNLEPEDTAVYSCARMQDRYYISKDAKDYGYWGQETQVTVSS
notes: as for B1
Kd: 0.09 nM
koff: 0.000318 s⁻¹
kon: 3.53e+06 M⁻¹ s⁻¹

B5: sdAb H12 (VHH)
VHH: EVQLQASGGGLVLTGGSLRLSCAASGRNFSNYAMAWFRQAPGKEREFVGTISWYTNTNYANSVKGRFSISRDNAKNTVYLQMSSLKPEDTAVYYCAAAPAMYYNPYTRESEYGYWGQGTQVTVSS
notes: as for B1
Kd: 0.272 nM
koff: 0.000607 s⁻¹
kon: 2.23e+06 M⁻¹ s⁻¹

B6: sdAb E9 (VHH)
VHH: EVQLQASGGGLVQAGGSLRLSCAASGRDFSDYAMAWFRQAPGKEREFVGTISWYTNTNYADSVKGRFSISRDNAKNTVYLQMSSLKPEDTAVYYCAAAPARYYNPYKRESEYGYWGQGTQVTVSS
notes: as for B1
Kd: 0.533 nM
koff: 0.000589 s⁻¹
kon: 1.11e+06 M⁻¹ s⁻¹

B7: sdAb E2 (VHH)
VHH: EVQLQASGGGLVQAGGSLRLTCAASGRTFGSYAMGWFRQAPGKEREFVAAISWSGGDTYADSVKGRFTISRDNAKNTVYLQMNSLAPEDTAVYSCAAVGARYYISKDAKDYGYWGQGTQVTVSS
notes: as for B1
Kd: 0.273 nM
koff: 0.00351 s⁻¹
kon: 1.28e+07 M⁻¹ s⁻¹

B8: sdAb H9-A1 (VHH)
VHH: EVQLQASGGGLVQPGGSLRLSCAASGSAVSIGFMAWYRQAPGKQRELVARISSSGLPDYADTVKGRFTISRDNTRKTVSLQMNSLNPDDTAVYYCNARLYDGSSAWGQGTQVTVSS
notes: as for B1
Kd: 1.25 nM
koff: 0.00227 s⁻¹
kon: 1.8e+06 M⁻¹ s⁻¹

B9: sdAb H9-H11 (VHH)
VHH: DVQLQASGGGLVQPGGSLRLSCAASESAVRIGFMGWHRQAPGNQRERVAQISSTGLPTYADAVKGRFTISRDNTKNTVYLQMNSLNADDTAVYFCNARLYDGTSVWGQGTQVTVSS
notes: source: E. coli, periplasm, purified (IMAC, size exclusion chromatography)
Kd: 1.56 nM
koff: 0.000755 s⁻¹
kon: 485000 M⁻¹ s⁻¹

B10: sdAb S222-A2 (VHH)
VHH: DVQLQASGGGLVEPGGSLRLSCAASGSAVSIGFMGWHRQAPGKQRERVAQISSTGIPNYADTVKGRFTISRDNTKNTMYLQMNSLNADDTAVYFCNARLYDGTSAWGQGTQVTVSS
notes: as for B9
Kd: 4.16 nM
koff: 0.00506 s⁻¹
kon: 1.22e+06 M⁻¹ s⁻¹

B11: sdAb H9-B11 (VHH)
VHH: DVQLQASGGGLVQVGGSLRLSCAASGSTFRIGYMGWYRQAPGKPRELVARISSGGTTDYLDFVKDRFTISRDNAKNTVYLQMSSLKPEDTAVYYCNVVNYRANEYWGQGTQVTVSS
notes: as for B9
Kd: 3.32 nM
koff: 0.000512 s⁻¹
kon: 154000 M⁻¹ s⁻¹

B12: sdAb F1 (VHH)
VHH: DVQLQASGGGLVQAGGSLRLTCAASLHTFGSYAMGWFRQAPGKEREFVAAISWSGGDTYSDSVKGRFTISRDNAKNTVYLQMNSLEPEDTAVYSCAAVEARYYISTDAKDYGYWGQGTQVTVSS
notes: as for B1
Kd: 0.65 nM
koff: 0.00042 s⁻¹
kon: 646000 M⁻¹ s⁻¹

B13: sdAb H9-D7 (VHH)
VHH: DVQLQASGGGLVQVGGSLRLSCAASGSTFRIGYMSWHRQAPGKSRELVARISSGGTTDYLDSVKDRFTISRDNTKNTVYLQMNSLEPEDTAVYYCNVVDYRANEYWGQGTQVAVSS
notes: as for B1
Kd: 1.1 nM
koff: 0.000192 s⁻¹
kon: 174000 M⁻¹ s⁻¹

B14: sdAb A10 (VHH)
VHH: EVQLQASGGGLVRAGGTLRLTCDATTPTFGSYAMGWFRQAPGKEREFVSAISWSGGDTYADSVKGRFTISRDNTRNRVYLQMNDLEPDDTAIYTCARTTARYYISKDAKDYDYWGQGTQVTVSS
notes: as for B1
Kd: 0.158 nM
koff: 0.000277 s⁻¹
kon: 1.76e+06 M⁻¹ s⁻¹
